Molecular target: T1, MAGE-A4 (peptide named MA4-286) peptide on HLA-A*02:01 (human)
T1 peptide: KVLEHVVRV
Experiment: multimer staining

binding result: recognises
B1: MA4-286 G6 TCR (TCR, V domains shown)
Valpha: AQTVTQSQPEMSVQEAETVTLSCTYDTSENNYYLFWYKQPPSRQMILVIRQEAYKQQNATENRFSVNFQKAAKSFSLKISDSQLGDTAMYFCASHSGAGSYQLTFGKGTKLSVIP
Vbeta: DTGVSQDPRHKITKRGQNVTFRCDPISEHNRLYWYRQTLGQGPEFLTYFQNEAQLEKSRLLSDRFSAERPKGSFSTLEIQRTEQGDSAMYLCASSPTGGFYEQYFGPGTRLTVT
